Laboratory results from paper PMC5161667 (Nature, 2016).
Changes are numbered by the printed parent chain. Names and notes keep the numbering of the source.

Key:
[1] = molecular target: ExbD_(E113C) (E. coli (K-12 strain)) (UniProt P0ABV2); assay: cross-linking
[2] = molecular target: ExbD_(E113C) labeled with MTSL (E. coli (K-12 strain)) (UniProt P0ABV2); assay: DEER spectroscopy
[3] = molecular target: ExbD_(N78C) labeled with MTSL (Ton subcomplex) (E. coli (K-12 strain)) (UniProt P0ABV2); assay: DEER spectroscopy
[4] = molecular target: ExbD_(N78C) labeled with MTSL (fully assembled Ton complex) (E. coli (K-12 strain)) (UniProt P0ABV2); assay: DEER spectroscopy
crystal structure [5] = molecular target: the molecule itself; assay: crystal structure
crystal structure [6] = molecular target: the molecule itself; assay: crystal structure; remark: listed apart in the source
DEER spectroscopy = molecular target: the molecule itself; assay: DEER spectroscopy

**Q.** How did the stoichiometry N [1] turn out when “ExbD_(E113C) (from UniProt P0ABV2 1-141) (natural protein)” was run?
**A.** 2

**Q.** For “ExbD_(E113C) labeled with MTSL (from UniProt P0ABV2 1-141) (natural protein)”, which stoichiometry N [2] is on record?
**A.** 2

**Q.** For “ExbD_(N78C) labeled with MTSL (Ton subcomplex) (from UniProt P0ABV2 1-141) (natural protein)”, which stoichiometry N [3] is on record?
**A.** 2

**Q.** With “ExbD_(N78C) labeled with MTSL (fully assembled Ton complex) (from UniProt P0ABV2 1-141) (natural protein)” as the molecule, how does the stoichiometry N [4] read?
**A.** 2

B1: ExbB (natural protein, E. coli (K-12 strain), UniProt P0ABU7 1-244, looked up)
chain: MGNNLMQTDLSVWGMYQHADIVVKCVMIGLILASVVTWAIFFSKSVEFFNQKRRLKREQQLLAEARSLNQANDIAADFGSKSLSLHLLNEAQNELELSEGSDDNEGIKERTSFRLERRVAAVGRQMGRGNGYLATIGAISPFVGLFGTVWGIMNSFIGIAQTQTTNLAVVAPGIAEALLATAIGLVAAIPAVVIYNVFARQIGGFKAMLGDVAAQVLLLQSRDLDLEASAAAHPVRVAQKLRAG
**Q.** How did the “stoichiometry N” value (crystal structure [5]) turn out when B1 was run?
**A.** 5

B2: ExbB_(C25S), selenomethionine-substituted (natural protein, E. coli (K-12 strain), UniProt P0ABU7 1-244, looked up)
chain: B1 chain with C25S
modifications: selenomethionine-substituted
**Q.** For B2, which “stoichiometry N” value (crystal structure [6]) is on record?
**A.** 5

B3: ExbB labeled at C25 with MTSL (natural protein, E. coli (K-12 strain), UniProt P0ABU7 1-244, looked up)
chain: B1 chain
modifications: MTSL spin label on Cys25 (50% labeling efficiency)
**Q.** With B3 as the molecule, how does the “stoichiometry N” value (DEER spectroscopy) read?
**A.** 5
